Where two headings read alike, the source gives them in different places.
T1: DNA polymerase IV (Dpo4) (Sulfolobus solfataricus, UniProt Q97W02 1-352)
T1 sequence: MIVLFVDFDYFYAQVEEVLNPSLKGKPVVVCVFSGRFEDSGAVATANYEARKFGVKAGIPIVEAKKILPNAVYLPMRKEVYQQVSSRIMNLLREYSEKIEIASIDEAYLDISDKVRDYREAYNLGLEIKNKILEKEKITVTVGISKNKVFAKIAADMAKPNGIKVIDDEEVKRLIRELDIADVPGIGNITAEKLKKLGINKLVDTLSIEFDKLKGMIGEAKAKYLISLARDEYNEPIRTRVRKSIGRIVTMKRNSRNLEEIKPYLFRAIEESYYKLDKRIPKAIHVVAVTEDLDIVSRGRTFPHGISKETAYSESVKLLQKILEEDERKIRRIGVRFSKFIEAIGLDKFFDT

B1: 20/26-mer-dG1,8 (dsDNA)
DNA 1: AACGACGGCCAGTGAATTCG
DNA 2: CCCGCGCGAATTCACTGGCCGTCGTT
modifications: template G6 (from 5') is dG1,8 = 8-(deoxyguanosin-N2-yl)-1-aminopyrene; lesion is the templating base
B2: 21/26-mer-dG1,8 (dsDNA)
DNA 1: AACGACGGCCAGTGAATTCGC
DNA 2: CCCGCGCGAATTCACTGGCCGTCGTT
modifications: template G6 (from 5') is dG1,8 = 8-(deoxyguanosin-N2-yl)-1-aminopyrene; lesion paired with primer 3' end

What was measured:
[1] = biological target: T1, DNA polymerase IV (Dpo4); test: EMSA
[2] = biological target: T1, DNA polymerase IV (Dpo4); test: EMSA; remark: listed apart in the source

Row | Binder | Kd [1] [nM] | Kd [2] [nM]
1 | B1 | 9 ± 2 | –
2 | B2 | – | 27 ± 3
